Literature values in publication PMC8781899.
Where two headings read alike, the source gives them in different places.

Legend:
[1] = molecular target: DR4 (Homo sapiens) (UniProt O00220)
[2] = molecular target: DR4 (Homo sapiens) (UniProt O00220); remark: listed apart in the source

UniProt O00220, sequence (O00220 24-468): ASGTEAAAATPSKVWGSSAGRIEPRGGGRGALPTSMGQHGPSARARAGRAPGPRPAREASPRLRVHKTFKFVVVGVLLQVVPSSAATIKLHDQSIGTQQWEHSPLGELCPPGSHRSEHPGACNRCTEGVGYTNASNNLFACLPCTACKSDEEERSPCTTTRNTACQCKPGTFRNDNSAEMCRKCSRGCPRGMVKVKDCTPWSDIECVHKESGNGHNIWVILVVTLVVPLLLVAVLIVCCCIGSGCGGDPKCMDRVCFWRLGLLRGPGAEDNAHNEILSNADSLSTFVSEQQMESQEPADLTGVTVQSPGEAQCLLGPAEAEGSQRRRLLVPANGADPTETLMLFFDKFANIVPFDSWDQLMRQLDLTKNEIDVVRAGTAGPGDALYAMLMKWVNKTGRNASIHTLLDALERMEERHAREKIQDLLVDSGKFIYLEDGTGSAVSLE
TRAIL, sequence (P50591 whole entry): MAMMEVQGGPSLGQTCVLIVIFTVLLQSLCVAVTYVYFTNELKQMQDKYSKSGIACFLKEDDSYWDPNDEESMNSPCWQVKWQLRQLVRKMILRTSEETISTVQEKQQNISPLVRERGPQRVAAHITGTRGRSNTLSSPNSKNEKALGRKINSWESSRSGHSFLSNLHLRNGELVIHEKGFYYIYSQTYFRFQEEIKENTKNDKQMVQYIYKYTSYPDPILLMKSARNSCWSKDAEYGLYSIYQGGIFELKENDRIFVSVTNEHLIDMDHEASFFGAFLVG

TRAIL D269H/E195R (DHER) (from UniProt P50591)
Kd [1]: 2.9 nM

TRAIL (from UniProt P50591)
Kd [2]: 0.17 nM
